What was measured:
[1] = biological target: mouse talin1 R1 VBS (H4) peptide; experiment: Fluorescence polarisation binding of VD1 to VBS peptide; conditions: fluorescein-labelled talin1 H4 peptide 700 nM, 2-fold serial dilution of protein, 25°C, triplicate, one-site total binding
Description: The mouse talin1 R1 VBS (H4) peptide (C-[…]) was synthesized by GLBiochem (Shanghai) with a non-native, N-terminal cysteine residue. The peptide was coupled with a maleimide-fluorescein dye (Thermo Fisher Scientific) following the manufacturers protocol. Assays were performed in triplicate with a 2-fold serial dilution of protein, with VBS peptide at 700 nM. Fluorescence polarization was measured using a CLARIOstar plate reader (BMGLabTech) at 25°C (excitation: 482 ± 8 nm; emission: 530 ± 20 nm). Data were analyzed using GraphPad Prism 8 software and Kd values were generated using the one-site total binding equation.

[2] = Circular dichroism thermal denaturation; type: physicochemical; conditions: 0.45 mg/mL protein, PBS pH 7.4, 222 nm, 20–90°C
Description: The VD1 domain of mouse vinculin (mVD1) was obtained as a codon-optimized synthetic gene in pET151 (GeneArt). The Q19S point mutation was introduced by site-directed mutagenesis and the sequence was verified.
Proteins were purified by nickel-affinity chromatography, followed by anion exchange chromatography. Briefly, cells were thawed, supplemented with 1 mM PMSF and 0.2% v/v Triton X-100 and lysed by sonication. Cell debris were removed by centrifugation and the supernatant was filtered and loaded onto a 5 mL HisTrap HP column (Cytiva) using an AKTA Start (GE Healthcare). The column was washed with buffer containing 50 mM Tris-HCl pH 8, 600 mM NaCl, 30 mM imidazole, 4 mM MgCl2, 4 mM ATP, 5% v/v glycerol, 0.2% v/v Triton X-100 and bound protein was eluted across a 75 mL linear gradient of 0–300 mM Imidazole. Fractions containing mVD1 were pooled, supplemented with AcTEV protease (Invitrogen) to remove the His-Tag and dialyzed against 20 mM Tris-HCl pH 8, 50 mM NaCl. Protein was loaded onto a 5 mL HiTrap Q (Cytiva), eluted across a 75 mL linear gradient of 50–750 mM NaCl, dialyzed against phosphate buffered saline (PBS) pH 7.4, snap-frozen in liquid nitrogen and stored at -80°C.
Circular dichroism was performed using a JASCO J-715 spectropolarimeter with 0.45 mg/mL protein samples in PBS pH 7.4. […]

talin1 H12 R3 = experiment: Biosensor analysis (biolayer interferometry, Octet RED384); type: binding; conditions: immobilized biotinylated H12 R3, VD1 16 μM to 15.6 nM, 28°C, pH 7.4, association 600 s, dissociation 1200 s, global fit
Description: Solid-phase synthesized talin1 H12 R3 (C-[…]) with free N-terminal cysteine was labelled with maleimide-PEG2-biotin (Thermo Fisher Scientific A39261). Lyophilized peptide was dissolved in PBS pH 7.4 and reduced at 100 μM peptide concentration with 250 μM TCEP in PBS supplemented with 0.25% Triton-X100 for 10 min at RT. Maleimide-PEG2-biotin was added at 5-fold molar excess (500 μM) and incubation continued for 2 hours at RT, mixing at 30 rpm. The reaction was quenched with β-mercaptoethanol added at 5-fold molar excess over maleimide-PEG2-biotin (2.5 mM) for 20 min at RT. Biotin-labelled peptide was purified using a PD10 desalting column (G25 resin, Cytiva Life Sciences) equilibrated with PBS. Elution fractions containing biotinylated peptide were identified using PageBlue-staining (Thermo Fisher Scientific) of glutaraldehyde-fixed (5%, 2 hours) Bolt BisTris Plus 4–12% SDS-PAGE gels (Thermo Fisher Scientific). The concentration of pooled elution fractions was determined using Pierce BCA microplate assay (Thermo Fisher Scientific) measured with Victor Nivo at 562 nm (PerkinElmer). Aliquoted peptide was flash-frozen with liquid nitrogen and stored at -80°C.
The binding and dissociation kinetics of recombinant WT and Q19S vinculin VD1 to talin1 H12 R3 were determined using ForteBio Octet RED384. […]

[3] = Size exclusion chromatography, oligomeric state; type: physicochemical; conditions: 100 μL at 100 μM, Superdex S200 Increase 10/300, PBS pH 7.4 with 5 mM DTT, 280 nm
Description: Samples of 100 μL protein at 100 μM protein concentration were injected onto a Superdex G-200 increase 10/300 (GE Healthcare) at 0.75 mL/min in PBS pH 7.4 (supplemented with 5 mM DTT) using an AKTA Pure (GE Healthcare), monitoring absorbance at 280 nm.

B1: wild-type VD1: VD1 domain of mouse vinculin; in simulations vinculin head domain 1, residues 1–252 (protein, UniProt Q64727 1-252, looked up, fragment)
chain: MPVFHTRTIESILEPVAQQISHLVIMHEEGEVDGKAIPDLTAPVAAVQAAVSNLVRVGKETVQTTEDQILKRDMPPAFIKVENACTKLVQAAQMLQSDPYSVPARDYLIDGSRGILSGTSDLLLTFDEAEVRKIIRVCKGILEYLTVAEVVETMEDLVTYTKNLGPGMTKMAKMIDERQQELTHQEHRVMLVNSMNTVKELLPVLISAMKIFVTTKNSKNQGIEEALKNRNFTVEKMSAEINEIIRVLQLTS
modifications: VD1 domain
[1]
  Kd: 350 nM
[2]
  melting temperature, Tm: 60 °C
talin1 H12 R3
  binding and dissociation kinetics (KD, kon, koff): did not reveal significant differences in the binding or dissociation kinetics
[3]
  oligomeric state in solution: monomeric in solution

— paper PMC11333002, “Molecular dynamics simulations reveal how vinculin refolds partially unfolded talin rod helices to stabilize them against mechanical force” (PLOS Computational Biology, 2024)
